By Kd is commonly meant the free concentration of one partner at which half of the binding sites on the other are occupied at equilibrium, for simple one-to-one binding.

This assay has as its target T1, Recombinantly expressed fused calprotectin (His6-linker-S100A9-linker-S100A8), product code B-RCAL, BÜHLMANN … (human, UniProt P06702 1-114; P05109 1-93).
T1 construct: Bought fusion protein; also called CP; human recombinant calprotectin
T1 sequence: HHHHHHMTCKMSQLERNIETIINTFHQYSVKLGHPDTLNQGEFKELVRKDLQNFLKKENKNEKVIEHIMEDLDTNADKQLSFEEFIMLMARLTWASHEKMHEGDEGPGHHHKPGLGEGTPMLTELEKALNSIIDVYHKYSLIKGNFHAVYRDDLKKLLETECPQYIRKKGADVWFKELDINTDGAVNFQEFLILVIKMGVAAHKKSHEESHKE
The assay is described as follows: fluorescence polarization, 20 nM fluorescent peptide, calprotectin titrated. The protocol: The reaction mixture was incubated at 30° C. for 1 hr, and the completion of the reaction was assessed by LCMS. The reaction was stopped by addition of HCOOH (200 μL) and the cyclized peptide was lyophilized. The final purification was performed as before with a reversed-phase C18 column (X-bridge peptide BEH C18 5 μm, 300 Å, 10×250 mm, Waters) applying a flow rate of 6 mL/min and an appropriate linear gradient in 40 min. Fractions containing the desired peptide were lyophilized. The purity of the peptides was assessed by analysing around 20 μg of peptide by RP-HPLC (1260 HPLC system, Agilent) using a C18 column (ZORBAX 300SB-C18, 5 μm, 300 Å, 4.6×250 mm, Agilent). Peptides were run at a flow rate of 1 mL min⁻¹ with a linear gradient of 0-100% of solvent B over 15 min (A: 94.9% H₂O, 5% ACN and 0.1% TFA; B: 99.9% ACN and 0.1% TFA). The mass was determined by electrospray ionization mass spectrometry (ESI-MS) in positive ion mode on a single quadrupole liquid chromatography mass spectrometer (LCMS-2020, Shimadzu). […] Fluorescence anisotropy was measured on a microwell plate reader (Infinite M200Pro, Tecan), with a filter for excitation at 485 nm and emission at 535 nm. Dissociation constant (Kd) was calculated using the following equation on Prism 5 (GraphPad): […]

B1: Peptide 3 Isomer 1 (RCPECVAFPMFQCHWYCG with cross-linked neighboring cysteines) (peptide)
peptide: RCPECVAFPMFQCHWYCG
modifications: neighboring cysteines cross-linked by chemical linkers (linker not named); N-terminal 5(6)-carboxyfluorescein; synthesised on rink amide AM resin
notes: Both pairs of neighboring cysteines bridged
B1: the dissociation constant Kd is approximately 24 nM.

The record behind these values is patent US20250326807A1 (published 2025).
